Experimental data: the supplement of paper PMC12042874
± gives the uncertainty stated by the source.

Test: amyloid nucleation score (Sup35N fusion, yeast selection) (log enrichment); library NNK1; higher = more nucleation; inactive = no reads after selection
How it was run: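 DiMSum was used to calculate nucleation scores as log enrichment of output over input reads, centred on the mode score of non-aggregating sequences. Sequences with fewer than 100 input reads were not scored. Input and output came from Illumina sequencing of plasmid inserts in psi-negative yeast expressing peptides of 20 random codons fused to Sup35N, induced 24 hours with 100 μM copper sulfate and then grown 7 days at 30°C on medium lacking adenine and uracil.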

Substance | amyloid nucleation score
LLGYRTYEMEHSCILRPRNK | 0.887 ± 0.57
MIVDNHWHECYSRAS | -1.76 ± 1.4
IYVYVLSMMCPSEDR | 0.201 ± 0.84
PCIVKYRNSGLHNYRIRLNR | -1.12 ± 0.97
WFELWKSVRGMENYAYVARC | -0.043 ± 0.29
SLRSPWDRCSFRHFLPFFTM | -0.735 ± 0.69
FLNGKSGHAVVKLEGLMTNW | 0.447 ± 0.32
PTGSYKAGSSSSLVYPFED | -0.062 ± 0.52
YAAGGIRKSVGSTVRSPWGA | 0.903 ± 0.84
NFRLCLWSDAGLIGKAVFGY | 0.718 ± 0.39
VTMVGRSLKLLMTYETFNTW | -0.21 ± 0.24
SPAMYPHNSRFLMYITSFMQ | 1.08 ± 0.72
CIWQWVKDNDDNKVAS | -1.04 ± 0.46
TFYKYVGSTISPSFGFRYVG | -0.052 ± 0.38
LLAFL | -0.704 ± 0.55
FREFWPGLYYTTPYKLSNHC | -2.14 ± 1.1
DALYLFWVMGRMVRDRV | 0 ± 0.63
TLCCVWSNSFLRVTHDVYKA | 8.518 ± 0.057
SVKGRGRGILWMLAVSECVG | -0.762 ± 0.62
DYNWSCFH | 1.28 ± 0.69
TCFEMLPLK | 0.454 ± 0.5
LMSLVNPTRVSLFFDH | -0.11 ± 0.68

Substance | amyloid nucleation score
GCSVVNMADMG | 1.29 ± 0.45
FRNLTVGAWRPMPGERMPIG | -0.182 ± 0.42
DKTMVGTPGLTHMVVDGVE | 0.12 ± 0.84
FTRWLSFKTYG | -0.283 ± 0.66
WFNRSICSPNSHNDSSRFNQ | inactive
HSCSVPLWIWRFSVRAKGCK | 0.562 ± 0.57
HRGLSLLAGVSALVWKSQMT | -0.4 ± 1.1
RYCVGLVRICLKLGVREICS | 1.01 ± 0.97
TSACFFFRCCCLRS | 3.76 ± 0.15
FDRSWRGFAGPRQRTGLVVF | -0.178 ± 0.51
CTMLCFQALRLLGRRILFQA | -0.361 ± 0.48
TFKSTLFSYFPGPQEHARGR | 1.93 ± 0.25
VSVNTVFH | 0.36 ± 0.44
MLVFYCNRN | 2.88 ± 0.22
ATQNLKY | 0.824 ± 0.79
TSPDCKAAKSQGSKCRDRSC | -0.495 ± 0.62
SGPGDKVAISMNIY | 5.16 ± 0.087
TRYMICSL | 0.121 ± 0.6
SGCRYSAIVGSPMRCNMYRS | -0.756 ± 2.4
STKADTSRALVLCRGDC | -0.18 ± 0.59
YVQFYGWRTWDLYWYLEWVV | -1.07 ± 0.8
IYGTGFIWMFSVPKLERG | -0.537 ± 1.1

Substance | amyloid nucleation score
CAKGCCD | -0.344 ± 0.72
KRSSFYHWQWHGKSL | -0.718 ± 0.51
LNNLVFVLLV | 3.37 ± 0.09
NIGMRDTGVLLDKLCQV | -0.594 ± 0.65
MDGALSVEFSWGLLSKTRLC | -0.122 ± 0.74
CQNYSHLWGEVTEWLCQRGP | 3.39 ± 0.17
EQRKRDHSRASSVSLKRYMG | 0.657 ± 0.53
SIGPFKTYCTAAWP | -0.502 ± 0.36
YAFRSRHRSFSFIGTLMVFD | 0.55 ± 0.5
IKAWWMNHGRYHCLTLRVCL | 0.713 ± 0.38
GFKGQRNNAIQVMGKKNRLQ | -0.238 ± 0.59
TGSQLWHIIFRC | 0.214 ± 0.24
CMSLYRGFLTPEWNIFVWLA | 0.514 ± 0.61
SGRRTYMLRMLQWVGVIAYR | -2.36 ± 2.4
ITPYQQFWLIVDTIGNMMEI | 2.07 ± 0.2
RVSVVQFMSKVPTRLMVIEW | 0.705 ± 0.65
IRMFSTLLACNLVIGGCLAN | 6.482 ± 0.053
PYIVKVCGCDPLVHLFI | 0.608 ± 0.23
WLVHIHRTSSISYILCLDLG | inactive
KSWWNDVFVYVYQILEFHCR | 0.032 ± 1.2
WVVLFLLWNGWVDWHIRTEQ | -0.128 ± 0.36
LDRFVYY | 1.41 ± 0.69

Substance | amyloid nucleation score
GVALFVIGLNSQIVANSYTS | 6.285 ± 0.055
ACYNGHTSRWLR | 1.09 ± 0.85
WHFSMFREWRSS | -0.649 ± 0.73
LSFMMRGSIHWPLTTLRACS | 1.05 ± 0.6
RYMVGSENEIRL | 0.583 ± 0.29
LLYIILFRNYILYKLWIRFA | 0.572 ± 0.3
YYMMTKRGFNMILCCCCRCF | 0.667 ± 0.2
CGWSSMIVP | 0.343 ± 0.63
VVSYSHAIVRLVLSCDMGRC | 0.441 ± 0.47
RGRTRLKFLCLLYWWGKTKG | -0.4 ± 0.44
CFFEILLSMISTMPRNVKLR | -0.28 ± 0.41
GRMHKLVNCRAFTGLYKGIY | -1.03 ± 0.62
TTRHSNQSIM | 0.344 ± 0.4
IISGIIIRYIDYNYRD | inactive
LIQRLVFEYMFPVIGVPISW | -0.208 ± 0.65
GNNLHLRS | -0.121 ± 0.66
VWMYMHAFCYSTGRRKAMPG | -1.76 ± 0.77
TAYAFNDCEFEPVWSRIVGN | -0.412 ± 0.48
HELMLQILGLAFLLGMFAGV | -0.747 ± 0.63
